The results in this text go back to US20260139240A1 (GRIFFITH UNIVERSITY, published 2026).

In this test the target is T1, Wild type SubB (subtilase cytotoxin B subunit) (Escherichia coli, UniProt Q6EZC3 24-141).
T1 construct: also called SubB WT
The experiment in a line: SPR (Biacore […]), […], single cycle kinetics.

B1: Bovine α1-acid glycoprotein (AGP) (other)
chain: QSPECANLMTVAPITNATMDLLSGKWFYIGSAFRNPEYNKSARAIQAAFFYLEPRHAEDKLITREYQTIEDKCVYNCSFIKIYRQNGTLSKVESDREHFVDLLLSKHFRTFMLAASWNGTKNVGVSFYADKPEVTQEQKKEFLDVIKCIGIQESEIIYTDEKKDACGPLEKQHEEERKKETEAS
notes: mature; also called Bovine α1-AGP; bovine AGP
Turning to B1, the affinity, expressed as Kd, was 156 nM. This counts as sub-micromolar.
